Assay results as given in publication PMC7515708, “Enhancer RNAs predict enhancer–gene regulatory links and are critical for enhancer function in neuronal systems”.

Tests used:
[1] = biological target: T1, CBP HAT domain (UniProt Q92793 1319-1710); assay: EMSA; 20 nM RNA, 0.05-0.6 uM protein, yeast tRNA 0.1 mg/ml; 20 mM HEPES, 40 mM KCl, 1 mM EDTA, 0.2 mM DTT, 0.1 mg/ml BSA, 0.1% Tween-20, 20% glycerol, 0.1 mg/ml yeast tRNA; pH not stated; 1 h at 37 C; 1% agarose, 0.5x TBE; conditions: protein: commercial; tags: GST; label: fluorescein-12-UTP, internal
[2] = biological target: T1, CBP HAT domain; assay: EMSA; 20 nM RNA, 0.05-0.6 uM protein, yeast tRNA 0.1 mg/ml; almost complete binding at 0.6 uM; 20 mM HEPES, 40 mM KCl, 1 mM EDTA, 0.2 mM DTT, 0.1 mg/ml BSA, 0.1% Tween-20, 20% glycerol, 0.1 mg/ml yeast tRNA; pH not stated; 1 h at 37 C; 1% agarose, 0.5x TBE; conditions: protein: commercial; tags: GST; label: fluorescein-12-UTP, internal
[3] = biological target: CBP bromodomain (UniProt Q92793 1081-1197); assay: EMSA; same concentrations as HAT (up to 0.6 uM); no appreciable binding; 20 mM HEPES, 40 mM KCl, 1 mM EDTA, 0.2 mM DTT, 0.1 mg/ml BSA, 0.1% Tween-20, 20% glycerol, 0.1 mg/ml yeast tRNA; pH not stated; 1 h at 37 C; 1% agarose, 0.5x TBE; conditions: protein: commercial; tags: GST; label: fluorescein-12-UTP, internal
[4] = biological target: T1, CBP HAT domain; assay: competition; against labeled eRNA1; competitor up to 5 uM; 20 mM HEPES, 40 mM KCl, 1 mM EDTA, 0.2 mM DTT, 0.1 mg/ml BSA, 0.1% Tween-20, 20% glycerol, 0.1 mg/ml yeast tRNA; pH not stated; 1 h at 37 C; 1% agarose, 0.5x TBE; conditions: protein: commercial; tags: GST

T1 sequence (Q92793 1319-1710): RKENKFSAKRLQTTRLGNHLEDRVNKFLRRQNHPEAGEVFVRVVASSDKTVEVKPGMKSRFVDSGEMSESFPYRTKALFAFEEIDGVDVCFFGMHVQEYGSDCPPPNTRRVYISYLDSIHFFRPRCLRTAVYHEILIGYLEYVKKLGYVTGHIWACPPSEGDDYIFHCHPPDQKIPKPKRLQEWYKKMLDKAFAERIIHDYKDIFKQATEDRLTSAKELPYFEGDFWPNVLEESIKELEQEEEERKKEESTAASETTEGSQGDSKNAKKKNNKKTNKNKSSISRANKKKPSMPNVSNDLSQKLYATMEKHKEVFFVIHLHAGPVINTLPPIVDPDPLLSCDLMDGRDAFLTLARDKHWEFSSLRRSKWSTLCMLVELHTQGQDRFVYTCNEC
Chain of CBP bromodomain (Q92793 1081-1197): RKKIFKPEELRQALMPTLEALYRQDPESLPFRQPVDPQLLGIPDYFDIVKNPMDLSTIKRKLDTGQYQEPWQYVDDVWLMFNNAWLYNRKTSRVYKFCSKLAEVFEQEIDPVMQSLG

B1: Fos eRNA3 (150), labeled (ssRNA)
RNA: CCUUACUAGCCGCUGAGCGUGCAGGCGUUGGGGACACUUUACACCGGGUUCAGAUUCCAGGGCCGCCACUCCAGGUGGAUAAUGAAGUACAGGCCAUAGUCUUUCUGUGCCCUAGACUGUCAUCUAUAACGUAAGCAUACUAGCAAGACC
B1: binds [1].

B2: ctrl RNA (150), labeled (ssRNA)
RNA: GCUGCCAUCUGUCACCUAACAGGAGGAGGCUGAGAGUUACUUGUCUGGGAGACUUGCUGAGAGACAAGGACAGGCCCUGGAUCUCCUCAAUGUAGCCUGUCCGGGACUAUUCAGUUCUAUGAGGGACUUCUUAGAGAAACUAGGGUGCCC
B2: binds [1].

B3: Fos eRNA1 (150 nt), labeled (ssRNA)
RNA: UUCGGCGGAACCCAAUACAUGGAGUCUGGAGGUUAAGAGACUGCCAAGAAGUCAAGCGGAAAGAGAAACAAGAACGGGAAAGGAAGCUUGGCUGUUCUGUGGGCUUUGGGGCUUUGACCUUGUCUGGAAGCCAUAAACUCGGCUCGAGGG
B3: binds [2]; no binding [3].

B4: Fos eRNA1 (150 nt), unlabeled competitor (ssRNA)
RNA: B3 RNA
B4: binds [4].
